# Assay results: US20250270328A1 (BRIGHAM AND WOMEN S HOSPITAL, published 2025)
# Changes are numbered by the printed parent chain.
# T1: human KLRB1 protein extracellular domain (ECD) (human, UniProt Q12918 67-225)
# T1 construct: range 67-225; The ELISA and SPR text says only 'human KLRB1 ECD'; also called human KLRB1 ECD; CD161
# T1 sequence (looked up): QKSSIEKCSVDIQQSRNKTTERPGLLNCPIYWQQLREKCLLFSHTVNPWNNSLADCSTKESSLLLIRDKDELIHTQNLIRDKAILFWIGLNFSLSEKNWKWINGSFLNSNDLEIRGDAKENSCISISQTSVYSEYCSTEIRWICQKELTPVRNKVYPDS
# B1: 10A3D6 (murine monoclonal antibody) (antibody, mouse IgG1)
# heavy: EVQLQQSGPELVKPGASMKISCKASGYSFTGYTMNWVKQSHGKNLEWIGLINPNTGGTYYNQKFKDKATLTVDKSSSTAYMELLSLTSEDSAVYYCARLGDNYRGYFDCWGQGTTLTVSSAKTTPPSVYPLAPGSAAQTNSMVTLGCLVKGYFPEPVTVTWNSGSLSSGVHTFPAVLQSDLYTLSSSVTVPSSPRPSETVTCNVAHPASSTKVDKKIVPRDCGCKPCICTVPEVSSVFIFPPKPKDVLTITLTPKVTCVVVDISKDDPEVQFSWFVDDVEVHTAQTQPREEQFNSTFRSVSELPIMHQDWLNGKEFKCRVNSAAFPAPIEKTISKTKGRPKAPQVYTIPPPKEQMAKDKVSLTCMITDFFPEDITVEWQWNGQPAENYKNTQPIMNTNGSYFVYSKLNVQKSNWEAGNTFTCSVLHEGLHNHHTEKSLSHSPGK
# light: DIVMTQSHKFMSTSVGDRVNITCKASQDVGTAVVWYQQTPGQSPKVLIDWASIRHTGVPDRFTGSGSGTDFTLTISSVQSEDLADYFCQQYSTYLYTFGGGTKLEIKRADAAPTVSIFPPSSEQLTSGGASVVCFLNNFYPKDINVKWKIDGSERQNGVLNSWTDQDSKDSTYSMSSTLTLTKDEYERHNSYTCEATHKTSTSPIVKSFNRNEC
# notes: copies: 2 + 2
# B2: 10A3D6C109S-chimeric (antibody, human IgG1, V domains shown)
# VH: EVQLQQSGPELVKPGASMKISCKASGYSFTGYTMNWVKQSHGKNLEWIGLINPNTGGTYYNQKFKDKATLTVDKSSSTAYMELLSLTSEDSAVYYCARLGDNYRGYFDSWGQGTTLTVSS
# VL: DIVMTQSHKFMSTSVGDRVNITCKASQDVGTAVVWYQQTPGQSPKVLIDWASIRHTGVPDRFTGSGSGTDFTLTISSVQSEDLADYFCQQYSTYLYTFGGGTKLEIK
# notes: Chimeric mutated variant; the name hIgG1k indicates human IgG1 kappa constant regions; also called 10A3D6C109ShIgG1k
# B3: 10A3D6C109F-chimeric (antibody, human IgG1, V domains shown)
# VH: B2 VH with S109F
# VL: B2 VL
# notes: Chimeric mutated variant; the name hIgG1k indicates human IgG1 kappa constant regions; also called 10A3D6C109FhIgG1k
# B4: 10A3D6C109V-chimeric (antibody, human IgG1, V domains shown)
# VH: B2 VH with S109V
# VL: B2 VL
# notes: Chimeric mutated variant; the name hIgG1k indicates human IgG1 kappa constant regions; also called 10A3D6C109VhIgG1k
# B5: 10A3D6C109Chum2.2 (antibody, V domains shown)
# VH: QVQLVQSGAEVKKPGASVKVSCKASGYSFTGYTMNWVRQAPGQNLEWIGLINPNTGGTYYNQKFKDRVTLTVDTSISTAYMELSRLRSDDTAVYYCARLGDNYRGYFDCWGQGTTVTVSS
# VL: DIQLTQSPSFLSASVGDRVTITCKASQDVGTAVVWYQQKPGKAPKLLIDWASIRHTGVPSRFSGSGSGTEFTLTISSLQPEDFADYFCQQYSTYLYTFGGGTKLEIK
# notes: Humanized variant of 10A3D6 made by CDR grafting
# B6: 10A3D6C109Chum1.1 (antibody, V domains shown)
# VH: B5 VH with N44G, I48M, L70M, V72R
# VL: B5 VL with D49Y, D85T, F87Y
# notes: as for B5
# B7: 10A3D6C109Chum1.2 (antibody, V domains shown)
# VH: B5 VH with N44G, I48M, L70M, V72R
# VL: B5 VL
# notes: as for B5
# B8: 10A3D6C109Chum1.3 (antibody, V domains shown)
# VH: B5 VH with N44G, I48M, L70M, V72R
# VL: B5 VL with K39T
# notes: as for B5
# B9: 10A3D6C109Chum1.4 (antibody, V domains shown)
# VH: B5 VH with N44G, I48M, L70M, V72R
# VL: B5 VL with K39T, S60D
# notes: as for B5
# B10: 10A3D6C109Chum2.1 (antibody, V domains shown)
# VH: B5 VH
# VL: B5 VL with D49Y, D85T, F87Y
# notes: as for B5
# B11: 10A3D6C109Chum2.3 (antibody, V domains shown)
# VH: B5 VH
# VL: B5 VL with K39T
# notes: as for B5
# B12: 10A3D6C109Chum2.4 (antibody, V domains shown)
# VH: B5 VH
# VL: B5 VL with K39T, S60D
# notes: as for B5
# B13: 10A3D6C109Chum3.1 (antibody, V domains shown)
# VH: B5 VH with P41H
# VL: B5 VL with D49Y, D85T, F87Y
# notes: as for B5
# B14: 10A3D6C109Chum3.2 (antibody, V domains shown)
# VH: B5 VH with P41H
# VL: B5 VL
# notes: as for B5
# B15: 10A3D6C109Chum3.3 (antibody, V domains shown)
# VH: B5 VH with P41H
# VL: B5 VL with K39T
# notes: as for B5
# B16: 10A3D6C109Chum3.4 (antibody, V domains shown)
# VH: B5 VH with P41H
# VL: B5 VL with K39T, S60D
# notes: as for B5
# B17: 10A3D6C109Chum4.1 (antibody, V domains shown)
# VH: B5 VH with P41H, V68A
# VL: B5 VL with D49Y, D85T, F87Y
# notes: as for B5
# B18: 10A3D6C109Chum4.2 (antibody, V domains shown)
# VH: B5 VH with P41H, V68A
# VL: B5 VL
# notes: as for B5
# B19: 10A3D6C109Chum4.3 (antibody, V domains shown)
# VH: B5 VH with P41H, V68A
# VL: B5 VL with K39T
# notes: as for B5
# B20: 10A3D6C109Chum4.4 (antibody, V domains shown)
# VH: B5 VH with P41H, V68A
# VL: B5 VL with K39T, S60D
# notes: as for B5
# B21: 10A3D6C109Chum5.1 (antibody, V domains shown)
# VH: B5 VH with I48M, A92V, T115L
# VL: B5 VL with D49Y, D85T, F87Y
# notes: as for B5
# B22: 10A3D6C109Chum5.2 (antibody, V domains shown)
# VH: B5 VH with I48M, A92V, T115L
# VL: B5 VL
# notes: as for B5
# B23: 10A3D6C109Chum5.3 (antibody, V domains shown)
# VH: B5 VH with I48M, A92V, T115L
# VL: B5 VL with K39T
# notes: as for B5
# B24: 10A3D6C109Chum5.4 (antibody, V domains shown)
# VH: B5 VH with I48M, A92V, T115L
# VL: B5 VL with K39T, S60D
# notes: as for B5
# B25: 10A3D6C109Chum2.5 (antibody, V domains shown)
# VH: B5 VH
# VL: EIVMTQSPATLSVSPGERATLSCKASQDVGTAVVWYQQKPGQAPRLLIDWASIRHTGIPARFSGSGSGTEFTLTISSLQSEDFAVYYCQQYSTYLYTFGGGTKVEIK
# notes: as for B5
# B26: 10A3D6C109Chum1.5 (antibody, V domains shown)
# VH: B5 VH with N44G, I48M, L70M, V72R
# VL: B25 VL
# notes: as for B5
# B27: 10A3D6C109Chum3.5 (antibody, V domains shown)
# VH: B5 VH with P41H
# VL: B25 VL
# notes: as for B5
# B28: 10A3D6C109Chum4.5 (antibody, V domains shown)
# VH: B5 VH with P41H, V68A
# VL: B25 VL
# notes: as for B5
# B29: 10A3D6C109Chum5.5 (antibody, V domains shown)
# VH: B5 VH with I48M, A92V, T115L
# VL: B25 VL
# notes: as for B5
# B30: 10A3D6hum1.5 (antibody, V domains shown)
# VH: B5 VH with N44G, I48M, L70M, V72R, C109S
# VL: B25 VL
# notes: Humanized antibody
# B31: 10A3D6hum1.2 (antibody, V domains shown)
# VH: B5 VH with N44G, I48M, L70M, V72R, C109S
# VL: DIQLTQSPSFLSASVGDRVTITCKASQDVGTAVVWYQQKPGKAPKLLIDWASIRHTGVPSRFSGSGSGTEFTLTISSLQPEDFADYFCQQYSTYLYTFGGGTKLEIKR
# modifications: Fluorescently labelled in the competition assay; dye and attachment site not stated.
# notes: Humanized antibody; also called 103AD6hum1.2; copies: 2 + 2
# Target: T1, human KLRB1 protein extracellular …
# Assay: SPR, human KLRB1 ECD; format not stated
# Method: The chimeric antibody 10A3D6-hIgGlk (a mouse/human chimeric antibody with 10A3D6 variable regions and human IgG1-kappa constant regions), chimeric mutated variants (10A3D6C109S, 10A3D6C109F, and 10A3D6C109V), and humanized variants of 10A3D6 created by CDR grafting (Almagro et al. 2008) were assayed for binding against human KLRB1 extracellular domain (ECD) via surface plasma resonance (SPR).
Kd,koff,kon,Binder
0.259 nM,0.000123 s⁻¹,475000 M⁻¹ s⁻¹,B1
0.0511 nM,0.000303 s⁻¹,5.93e+06 M⁻¹ s⁻¹,B2
0.0627 nM,0.000336 s⁻¹,5.36e+06 M⁻¹ s⁻¹,B3
0.0436 nM,0.000293 s⁻¹,6.72e+06 M⁻¹ s⁻¹,B4
0.106 nM,9.54e-05 s⁻¹,903000 M⁻¹ s⁻¹,B5
9.42 nM,0.00296 s⁻¹,314000 M⁻¹ s⁻¹,B6
0.0932 nM,9.35e-05 s⁻¹,1e+06 M⁻¹ s⁻¹,B7
0.1 nM,0.0001 s⁻¹,999000 M⁻¹ s⁻¹,B8
0.0717 nM,8.6e-05 s⁻¹,1.2e+06 M⁻¹ s⁻¹,B9
12.9 nM,0.00408 s⁻¹,315000 M⁻¹ s⁻¹,B10
0.0985 nM,9.41e-05 s⁻¹,955000 M⁻¹ s⁻¹,B11
0.0976 nM,9.68e-05 s⁻¹,992000 M⁻¹ s⁻¹,B12
15.8 nM,0.00721 s⁻¹,457000 M⁻¹ s⁻¹,B13
0.135 nM,0.000112 s⁻¹,832000 M⁻¹ s⁻¹,B14
0.109 nM,9.89e-05 s⁻¹,905000 M⁻¹ s⁻¹,B15
0.0907 nM,9.2e-05 s⁻¹,1.01e+06 M⁻¹ s⁻¹,B16

Kd,koff,kon,Binder
21.7 nM,0.00253 s⁻¹,117000 M⁻¹ s⁻¹,B17
0.121 nM,0.000107 s⁻¹,880000 M⁻¹ s⁻¹,B18
0.127 nM,0.000109 s⁻¹,851000 M⁻¹ s⁻¹,B19
0.103 nM,9.88e-05 s⁻¹,963000 M⁻¹ s⁻¹,B20
10.2 nM,0.0196 s⁻¹,1.92e+06 M⁻¹ s⁻¹,B21
0.173 nM,0.000138 s⁻¹,800000 M⁻¹ s⁻¹,B22
0.155 nM,0.000134 s⁻¹,868000 M⁻¹ s⁻¹,B23
0.143 nM,0.000133 s⁻¹,930000 M⁻¹ s⁻¹,B24
0.11 nM,9.49e-05 s⁻¹,861000 M⁻¹ s⁻¹,B25
0.0881 nM,9e-05 s⁻¹,1.02e+06 M⁻¹ s⁻¹,B26
0.144 nM,0.000114 s⁻¹,792000 M⁻¹ s⁻¹,B27
0.127 nM,0.000107 s⁻¹,843000 M⁻¹ s⁻¹,B28
0.17 nM,0.000139 s⁻¹,816000 M⁻¹ s⁻¹,B29
0.111 nM,0.000178 s⁻¹,1.6e+06 M⁻¹ s⁻¹,B30
0.147 nM,0.000183 s⁻¹,1.24e+06 M⁻¹ s⁻¹,B31
